# According to publication doi:10.1101/2022.06.13.496020 (bioRxiv, 2022):
# B1: TSH α-subunit (natural protein)
# chain: not shown
# modifications: N-linked glycans (two, one at N52)
# Target: TSH β-subunit (human, UniProt P01222 21-132, N-linked glycan (one))
# Test: cryo-EM structure
# TSH β-subunit, sequence (P01222 21-132): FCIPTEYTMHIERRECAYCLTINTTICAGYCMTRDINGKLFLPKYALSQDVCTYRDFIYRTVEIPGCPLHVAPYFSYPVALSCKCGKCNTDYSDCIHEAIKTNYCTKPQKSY
binder,measurement,value
B1,binding result,binds
